B1: NRC3_random_hg19_453_o1 (dsDNA)
DNA 1: GCATGATCATGGCTCACTGCAGCCTCGACCTCCAGAGCGATTGACAGCGTAGAATGAAGG
DNA 2: CCTTCATTCTACGCTGTCAATCGCTCTGGAGGTCGAGGCTGCAGTGAGCCATGATCATGC
B2: NRC3_wobSeed29_DR1_T5A_o1 (dsDNA)
DNA 1: GCGCATACGGGTCAAAGGTTATAGCATGAATAGAATGCGATTGACAGCGTAGAATGAAGG
DNA 2: CCTTCATTCTACGCTGTCAATCGCATTCTATTCATGCTATAACCTTTGACCCGTATGCGC
B3: NRC3_random_hg19_493_o1 (dsDNA)
DNA 1: GCGCCTAGCAGTCTATACAATTCTGAAGGATGCACCGCGATTGACAGCGTAGAATGAAGG
DNA 2: CCTTCATTCTACGCTGTCAATCGCGGTGCATCCTTCAGAATTGTATAGACTGCTAGGCGC
B4: NRC3_random_hg19_81_o1 (dsDNA)
DNA 1: GCGACTTTGTTGCCTAGGCTGGAATCTATCATGGCTGCGATTGACAGCGTAGAATGAAGG
DNA 2: CCTTCATTCTACGCTGTCAATCGCAGCCATGATAGATTCCAGCCTAGGCAACAAAGTCGC
B5: NRC3_random_hg19_305_o1 (dsDNA)
DNA 1: GCGACTGCACTCCAGCCTGGGCAATAGAGTGAGACTGCGATTGACAGCGTAGAATGAAGG
DNA 2: CCTTCATTCTACGCTGTCAATCGCAGTCTCACTCTATTGCCCAGGCTGGAGTGCAGTCGC
B6: NRC3_wobSeed63_DR2_G11C_o1 (dsDNA)
DNA 1: GCCGAACTAGCTCACCAGGACAGTGAAGAGGTTGGAGCGATTGACAGCGTAGAATGAAGG
DNA 2: CCTTCATTCTACGCTGTCAATCGCTCCAACCTCTTCACTGTCCTGGTGAGCTAGTTCGGC
B7: NRC3_wobSeed72_DR2_G11C_o1 (dsDNA)
DNA 1: GCTCGAGTAGCTTACGGGGGCATTCAGGGATGAAGAGCGATTGACAGCGTAGAATGAAGG
DNA 2: CCTTCATTCTACGCTGTCAATCGCTCTTCATCCCTGAATGCCCCCGTAAGCTACTCGAGC
B8: NRC3_wobSeed76_DR3_A18C_o1 (dsDNA)
DNA 1: GCCCTACTGGGCCAAAACGGTCATTGATGCCGATAAGCGATTGACAGCGTAGAATGAAGG
DNA 2: CCTTCATTCTACGCTGTCAATCGCTTATCGGCATCAATGACCGTTTTGGCCCAGTAGGGC
B9: NRC3_random_hg19_88_o1 (dsDNA)
DNA 1: GCAGATTGCTGGCCAACTGCTCCTGATCCATTACTAGCGATTGACAGCGTAGAATGAAGG
DNA 2: CCTTCATTCTACGCTGTCAATCGCTAGTAATGGATCAGGAGCAGTTGGCCAGCAATCTGC
B10: NRC3_random_hg19_11_o1 (dsDNA)
DNA 1: GCTGAGTCAGAACCACCCAGCTAAGCCACCATCAAAGCGATTGACAGCGTAGAATGAAGG
DNA 2: CCTTCATTCTACGCTGTCAATCGCTTTGATGGTGGCTTAGCTGGGTGGTTCTGACTCAGC
B11: NRC3_wobSeed38_DR1_T12A_o1 (dsDNA)
DNA 1: GCCCTGCTAGGACAATGGTCAGCTAAAGCAGCTCGCGCGATTGACAGCGTAGAATGAAGG
DNA 2: CCTTCATTCTACGCTGTCAATCGCGCGAGCTGCTTTAGCTGACCATTGTCCTAGCAGGGC
B12: NRC3_random_hg19_211_o1 (dsDNA)
DNA 1: GCATCACTATTCCCAACTTCAGGAGTAACCAGTATTGCGATTGACAGCGTAGAATGAAGG
DNA 2: CCTTCATTCTACGCTGTCAATCGCAATACTGGTTACTCCTGAAGTTGGGAATAGTGATGC
B13: NRC3_random_hg19_164_o1 (dsDNA)
DNA 1: GCCATGAGGACCTGCAGCGCAATGACCTCCGAGGCAGCGATTGACAGCGTAGAATGAAGG
DNA 2: CCTTCATTCTACGCTGTCAATCGCTGCCTCGGAGGTCATTGCGCTGCAGGTCCTCATGGC
B14: NRC3_random_hg19_118_o1 (dsDNA)
DNA 1: GCTTGTCACTTGTCATTCCTGCCAAGAGAGCTCTATGCGATTGACAGCGTAGAATGAAGG
DNA 2: CCTTCATTCTACGCTGTCAATCGCATAGAGCTCTCTTGGCAGGAATGACAAGTGACAAGC
B15: NRC3_random_hg19_131_o1 (dsDNA)
DNA 1: GCTCCCTCAAGCTCTCTGAATCTCAGAGTCAGCATCGCGATTGACAGCGTAGAATGAAGG
DNA 2: CCTTCATTCTACGCTGTCAATCGCGATGCTGACTCTGAGATTCAGAGAGCTTGAGGGAGC
B16: NRC3_wobSeed135_DR5_A14C_o1 (dsDNA)
DNA 1: GCCGAACTAGGTCCTTGACAGGACAGTGAATAGTAAGCGATTGACAGCGTAGAATGAAGG
DNA 2: CCTTCATTCTACGCTGTCAATCGCTTACTATTCACTGTCCTGTCAAGGACCTAGTTCGGC
B17: NRC3_wobSeed36_DR1_C4G_o1 (dsDNA)
DNA 1: GCCGGACTGGGGCAAAGGTTACCATACTCAGTACGAGCGATTGACAGCGTAGAATGAAGG
DNA 2: CCTTCATTCTACGCTGTCAATCGCTCGTACTGAGTATGGTAACCTTTGCCCCAGTCCGGC
B18: NRC3_wobSeed36_DR1_C23G_o1 (dsDNA)
DNA 1: GCCCGACTGGGGCAAAGGTTACGATACTCAGTACGAGCGATTGACAGCGTAGAATGAAGG
DNA 2: CCTTCATTCTACGCTGTCAATCGCTCGTACTGAGTATCGTAACCTTTGCCCCAGTCGGGC
B19: NRC3_wobSeed36_DR1_G5C_o1 (dsDNA)
DNA 1: GCCCCACTGGGGCAAAGGTTACCATACTCAGTACGAGCGATTGACAGCGTAGAATGAAGG
DNA 2: CCTTCATTCTACGCTGTCAATCGCTCGTACTGAGTATGGTAACCTTTGCCCCAGTGGGGC
B20: NRC3_wobSeed13_DR0_G10C_o1 (dsDNA)
DNA 1: GCCGTCCAACGTCAAGGTCAGTGAAAGAGACTCGAAGCGATTGACAGCGTAGAATGAAGG
DNA 2: CCTTCATTCTACGCTGTCAATCGCTTCGAGTCTCTTTCACTGACCTTGACGTTGGACGGC
B21: NRC3_wobSeed4_DR0_G17C_o1 (dsDNA)
DNA 1: GCCCTACTGGGCCAAGCTCATTGATCAGTCAAAGCAGCGATTGACAGCGTAGAATGAAGG
DNA 2: CCTTCATTCTACGCTGTCAATCGCTGCTTTGACTGATCAATGAGCTTGGCCCAGTAGGGC
B22: NRC3_random_hg19_235_o1 (dsDNA)
DNA 1: GCGCTGGGAGGCAACTGCCATTGGCATGCCATGCCAGCGATTGACAGCGTAGAATGAAGG
DNA 2: CCTTCATTCTACGCTGTCAATCGCTGGCATGGCATGCCAATGGCAGTTGCCTCCCAGCGC
B23: NRC3_random_hg19_181_o1 (dsDNA)
DNA 1: GCGCAGCATTTGTGTGCATGTATGCTGTGTGTATGCGCGATTGACAGCGTAGAATGAAGG
DNA 2: CCTTCATTCTACGCTGTCAATCGCGCATACACACAGCATACATGCACACAAATGCTGCGC
B24: NRC3_wobSeed41_DR1_T23G_o1 (dsDNA)
DNA 1: GCATATGTAGGTTAAGGGTCATGCAGGTTGGTTCGCGCGATTGACAGCGTAGAATGAAGG
DNA 2: CCTTCATTCTACGCTGTCAATCGCGCGAACCAACCTGCATGACCCTTAACCTACATATGC
B25: NRC3_wobSeed64_DR2_C13G_o1 (dsDNA)
DNA 1: GCTAGCCTAGGTGATTGGGCCAGTATAGTACGCATCGCGATTGACAGCGTAGAATGAAGG
DNA 2: CCTTCATTCTACGCTGTCAATCGCGATGCGTACTATACTGGCCCAATCACCTAGGCTAGC
B26: NRC3_wobSeed33_DR1_A16T_o1 (dsDNA)
DNA 1: GCATCTCTAGGTAAATGTTCAGTGAATCCCGAGGATGCGATTGACAGCGTAGAATGAAGG
DNA 2: CCTTCATTCTACGCTGTCAATCGCATCCTCGGGATTCACTGAACATTTACCTAGAGATGC
B27: NRC3_wobSeed10_DR0_A9C_o1 (dsDNA)
DNA 1: GCATCGAACGGTCGAGGTGAGTATAGAGAAAGGGAAGCGATTGACAGCGTAGAATGAAGG
DNA 2: CCTTCATTCTACGCTGTCAATCGCTTCCCTTTCTCTATACTCACCTCGACCGTTCGATGC
B28: NRC3_random_hg19_481_o1 (dsDNA)
DNA 1: GCCCTTCTTAGTATCTGGGACAACAGGTGTGTGCTAGCGATTGACAGCGTAGAATGAAGG
DNA 2: CCTTCATTCTACGCTGTCAATCGCTAGCACACACCTGTTGTCCCAGATACTAAGAAGGGC
B29: NRC3_wobSeed32_DR1_G18C_o1 (dsDNA)
DNA 1: GCTCTTGTAGATCAAAGCTTAAGAAAGCCGAAGCCTGCGATTGACAGCGTAGAATGAAGG
DNA 2: CCTTCATTCTACGCTGTCAATCGCAGGCTTCGGCTTTCTTAAGCTTTGATCTACAAGAGC
B30: NRC3_wobSeed50_DR2_A22C_o1 (dsDNA)
DNA 1: GCCCTAGTTGGTCAGGAGGTCCCACACCGGATATGAGCGATTGACAGCGTAGAATGAAGG
DNA 2: CCTTCATTCTACGCTGTCAATCGCTCATATCCGGTGTGGGACCTCCTGACCAACTAGGGC
B31: NRC3_random_hg19_333_o1 (dsDNA)
DNA 1: GCATGCCTGTAATCCCAGCTACTTGGGAGGCTGAGAGCGATTGACAGCGTAGAATGAAGG
DNA 2: CCTTCATTCTACGCTGTCAATCGCTCTCAGCCTCCCAAGTAGCTGGGATTACAGGCATGC
B32: NRC3_random_hg19_85_o1 (dsDNA)
DNA 1: GCTGGCTGGCACCTGTGTTCCAACAACTTGAGAGAGGCGATTGACAGCGTAGAATGAAGG
DNA 2: CCTTCATTCTACGCTGTCAATCGCCTCTCTCAAGTTGTTGGAACACAGGTGCCAGCCAGC
B33: NRC3_random_hg19_220_o1 (dsDNA)
DNA 1: GCTTGGTTGCAAGCAATACAAAGCAACTCTTGCTAAGCGATTGACAGCGTAGAATGAAGG
DNA 2: CCTTCATTCTACGCTGTCAATCGCTTAGCAAGAGTTGCTTTGTATTGCTTGCAACCAAGC

Molecular target: PPARg:RXRa (Homo sapiens, UniProt P37231;P19793 full;full)
Test: no ligand; PBM; 180 nM : 90 nM RXRa; PBS pH 7.4, 2% milk, 0.02% Triton X-100, 1 mM DTT, BSA, 0.4 mg/ml salmon testes DNA
Details: tags: His kept;His cleaved; copies: 1;1; label: surface-attached array probe

PPARg:RXRa, sequence (P37231 29-505, chain 1 of 2): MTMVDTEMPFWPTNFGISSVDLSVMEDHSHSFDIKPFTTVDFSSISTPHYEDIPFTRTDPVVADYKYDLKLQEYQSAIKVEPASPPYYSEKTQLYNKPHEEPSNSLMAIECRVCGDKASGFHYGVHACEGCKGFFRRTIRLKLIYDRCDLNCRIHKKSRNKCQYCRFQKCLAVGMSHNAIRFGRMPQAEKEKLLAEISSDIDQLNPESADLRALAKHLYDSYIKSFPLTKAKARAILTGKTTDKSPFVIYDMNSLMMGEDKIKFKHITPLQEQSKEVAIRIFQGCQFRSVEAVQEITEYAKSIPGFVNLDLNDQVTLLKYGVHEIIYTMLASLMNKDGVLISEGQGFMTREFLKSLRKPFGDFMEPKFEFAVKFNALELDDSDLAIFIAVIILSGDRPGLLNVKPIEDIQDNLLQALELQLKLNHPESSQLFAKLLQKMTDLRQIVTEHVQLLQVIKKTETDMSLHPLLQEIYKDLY
PPARg:RXRa, sequence (P19793 whole entry, chain 2 of 2): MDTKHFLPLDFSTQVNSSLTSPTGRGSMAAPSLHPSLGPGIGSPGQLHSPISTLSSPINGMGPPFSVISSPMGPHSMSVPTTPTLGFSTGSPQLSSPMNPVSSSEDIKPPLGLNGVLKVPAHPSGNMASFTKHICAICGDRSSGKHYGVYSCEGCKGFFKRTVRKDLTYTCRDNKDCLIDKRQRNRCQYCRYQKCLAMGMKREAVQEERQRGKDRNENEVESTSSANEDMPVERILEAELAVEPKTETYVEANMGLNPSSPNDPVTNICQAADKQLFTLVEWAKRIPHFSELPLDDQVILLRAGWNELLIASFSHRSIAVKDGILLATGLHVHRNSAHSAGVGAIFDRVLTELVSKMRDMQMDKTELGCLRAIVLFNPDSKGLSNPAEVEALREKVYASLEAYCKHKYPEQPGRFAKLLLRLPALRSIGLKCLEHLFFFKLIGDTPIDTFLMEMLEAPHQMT

Binder	binding signal
B1	0.09 PBM z-score against 500 random probes
B2	12.2 PBM z-score against 500 random probes
B3	0.38 PBM z-score against 500 random probes
B4	-0.16 PBM z-score against 500 random probes
B5	-0.27 PBM z-score against 500 random probes
B6	0.17 PBM z-score against 500 random probes
B7	0.35 PBM z-score against 500 random probes
B8	0.35 PBM z-score against 500 random probes
B9	-0.23 PBM z-score against 500 random probes
B10	-0.05 PBM z-score against 500 random probes
B11	0.3 PBM z-score against 500 random probes
B12	0.12 PBM z-score against 500 random probes
B13	0.42 PBM z-score against 500 random probes
B14	-0.38 PBM z-score against 500 random probes
B15	-0.66 PBM z-score against 500 random probes
B16	0.43 PBM z-score against 500 random probes
B17	12.2 PBM z-score against 500 random probes

Binder	binding signal
B18	12.2 PBM z-score against 500 random probes
B19	12.2 PBM z-score against 500 random probes
B20	0.38 PBM z-score against 500 random probes
B21	0.05 PBM z-score against 500 random probes
B22	-0.53 PBM z-score against 500 random probes
B23	-0.13 PBM z-score against 500 random probes
B24	12.4 PBM z-score against 500 random probes
B25	0.42 PBM z-score against 500 random probes
B26	0.4 PBM z-score against 500 random probes
B27	0.48 PBM z-score against 500 random probes
B28	0.31 PBM z-score against 500 random probes
B29	-0.29 PBM z-score against 500 random probes
B30	0.46 PBM z-score against 500 random probes
B31	-0.21 PBM z-score against 500 random probes
B32	-0.09 PBM z-score against 500 random probes
B33	-0.18 PBM z-score against 500 random probes

From paper PMC6555819, “Comprehensive study of nuclear receptor DNA binding provides a revised framework for understanding receptor specificity”
